The text below walks through data of US10208288B2, “Differentiation of human embryonic stem cells into pancreatic endocrine cells” (Janssen Biotech, Inc., priority 2012, dated 2019).

The experiment has as its system cells of the human embryonic stem cell line H1 differentiated to stage 5. As to the kind of experiment: Real-time PCR of pancreatic endoderm/endocrine genes after factors spiked into stage 5 media. It counts as cell-based. How it is done: Cells of the human embryonic stem cell line H1 (hESC H1, passage 40) were seeded as single cells at 1×10^5 cells/cm^2 on MATRIGEL™ (1:30 dilution; BD Biosciences, NJ)-coated dishes in mTeSR®1 media (StemCell Technologies, Vancouver, Canada) supplemented with 10 μM of Y27632 (Rock inhibitor, Catalog No. Y0503, SigmaAldrich, St. Louis, Mo.). Forty-eight hours post seeding, cultures were washed in incomplete PBS (phosphate buffered saline without Mg or Ca). Cultures were differentiated into pancreatic endoderm/endocrine lineages as follows: • a) Stage 1 (Definitive Endoderm (DE)—3 days): Cells were cultured for one day in stage 1 media: MCDB-131 medium (Catalog No. 10372-019, Invitrogen, Carlsbad, Calif.) supplemented with 0.1% fatty acid-free BSA (Catalog No. 68700, Proliant, Ankeny, Iowa), 0.0012 g/ml sodium bicarbonate (Catalog No. S3187, SigmaAldrich, St. Louis, Mo.), 1× GlutaMax™ (Invitrogen Catalog No. 35050-079), 4.5 mM D-Glucose (SigmaAldrich Catalog No. G8769), 100 ng/ml GDF8 (R&D Systems, Minneapolis, Minn.) and 1 μM MCX compound (a GSK3B inhibitor, 14-Prop-2-en-1-yl-3,5,7,14,17,23,27-heptaazatetracyclo [19.3.1.1˜2,6˜0.1˜8,12˜]heptacosa-1(25),2(27),3,5,8(26),9,11,21,23-nonaen-16-one, US Patent Application Publication No. 2010-0015711; incorporated herein by reference in its entirety). Cells were then cultured for additional day in MCDB-131 medium supplemented with 0.1% fatty acid-free BSA, 0.0012 g/ml sodium bicarbonate, 1× GlutaMax™, 4.5 mM D-Glucose, 100 ng/ml GDF8, and 0.1 μM MCX compound. Cells were then cultured for an additional day in MCDB-131 medium supplemented with 0.1% fatty acid-free BSA, 0.0012 g/ml sodium bicarbonate, 1× GlutaMax™, 4.5 mM D-Glucose, and 100 ng/ml GDF8, then • b) Stage 2 (Primitive gut tube—2 days): Cells were treated for two days with MCDB-131 medium supplemented with 0.1% fatty acid-free BSA; 0.0012 g/ml sodium bicarbonate; 1× GlutaMax™; 4.5 mM D-Glucose; 0.25 mM ascorbic acid (Sigma, St. Louis, Mo.) and 25 ng/ml FGF7 (R & D Systems, Minneapolis, Minn.), then • c) Stage 3 (Foregut—2 days): Cells were treated with MCDB-131 medium supplemented with a 1:200 dilution of ITS-X (Invitrogen); 4.5 mM Glucose; 1× GlutaMax™; 0.0017 g/ml sodium bicarbonate; 2% fatty acid-free BSA; 0.25 μM SANT-1 (Sigma, St. Louis, Mo.); 10 ng/ml of Activin-A (R & D Systems); 1 μM retinoic acid (RA; Sigma); 25 ng/ml FGF7; 0.25 mM ascorbic acid; 200 nM TPB (a PKC activator; Catalog No. 565740; EMD Chemicals, Gibstown, N.J.); 10 μM forskolin (FSK, Sigma), and 100 nM LDN (a BMP receptor inhibitor; Catalog No. 04-0019; Stemgent; San Diego, Calif.) for day 1. On day 2, cells were treated with MCDB-131 medium supplemented with a 1:200 dilution of ITS-X; 4.5 mM Glucose; 1× GlutaMax™; 0.0017 g/ml sodium bicarbonate; 2% fatty acid-free BSA; 0.25 μM SANT-1; 10 ng/ml of Activin A; 1 μM RA; 25 ng/ml FGF7; 0.25 mM ascorbic acid, 200 nM TPB, 10 μM forskolin and 10 nM LDN, then • d) Stage 4 (Pancreatic foregut precursor—2 days); Cells were treated with MCDB-131 medium supplemented with a 1:200 dilution of ITS-X; 4.5 mM Glucose; 1× GlutaMax™; 0.0015 g/ml sodium bicarbonate; 2% fatty acid-free BSA; 0.25 μM SANT-1; 50 nM RA; 50 nM LDN-193189; 10 μM forskolin; 0.25 mM ascorbic acid; and 100 nM TPB for two days, then • e) Stage 5 (Pancreatic endoderm/endocrine—3 days): Stage 4 cells were treated with MCDB-131 medium supplemented with a 1:200 dilution of ITS-X; 20 mM Glucose; 1× GlutaMax™; 0.0015 g/ml sodium bicarbonate; 2% fatty acid-free BSA; 0.25 μM SANT-1; 50 nM RA; 10 μM forskolin; 0.25 mM ascorbic acid for three days, with the addition of 100 nM ALk5 inhibitor SD-208 (disclosed in Molecular Pharmacology 2007, 72:152-161) for days 2-3 only.
At day 1 of stage 5, the factors listed in Table I, below, were spiked into the media and upon completion of S5 (day 3 of stage 5) mRNA was collected for PCR analysis of relevant pancreatic endoderm/endocrine genes. As a control, cultures were treated only with the S5 media listed above. […]
On the technique in general: Real-time PCR tracks product formation cycle by cycle.

B1: Ephrin-A4: Ephrin ligand protein, R & D Systems catalogue number 369-EA (protein, UniProt P52798 26-170, looked up)
Ephrin-A4: LRHVVYWNSSNPRLLRGDAVVELGLNDYLDIVCPHYEGPGPPEGPETFALYMVDWPGYESCQAEGPRAYKRWVCSLPFGHVQFSEKIQRFTPFSLGFEFLPGETYYYISVPTPESSGQCLRLQVSVCCKERKSESAHPVGSPGES
For the molecule B1, the PDX1 expression result (Ephrin-A4 100 ng/ml at S5, mRNA at day 3 of S5, vs control, FIG. 1E) is on record as “minimal impact”. For the same molecule, under “Ephrin-A4 100 ng/ml at S5, mRNA at day 3 of S5, vs control, FIG. 1G”, the NGN3 expression result is recorded as “minimal impact”. Moreover, the “mRNA expression of insulin” value (factor spiked at day 1 of stage 5, mRNA at day 3 of S5, vs control cultures, Table I: Ephrin-A4 100 ng/ml, Activin A and Activin C 20 ng/ml, FIG. 1A) is “enhanced”. In addition, the “mRNA expression of NKX6.1” value (factor spiked at day 1 of stage 5, mRNA at day 3 of S5, vs control cultures, Table I: Ephrin-A4 100 ng/ml, Semaphorin 3a 50 ng/ml, Epigen 20 ng/ml, FIG. 1F) is “enhanced”.
